What all share (type): cell-based, human
The subject of experiment [1] is melanomas and gliomas. The experiment can be described thus: Intracellular staining for Melan-A/MART-1 and gp100, melanomas and gliomas exposed to hits (Table 10). The settings on record: in most cell lines; three days (Table 10). On the procedure:
FIG. 7 is a series of graphs showing intracellular staining and flow histograms used to generate data for Table 10. All cells were stained with an antibody to gp100. Thin line represents untreated cells, bold line represents cells treated for three days with 17-AAG (1 μg/ml). Numbers represent geometric mean of flow histograms.
A further orthogonal secondary screen is the measurement of Melan-A/MART-1 and gp100 in additional melanoma cell lines and gliomas in response to the primary hit candidates. […] If the compounds of interest increase antigen levels in multiple melanoma cell lines and two gliomas, the effects of the compounds are clearly not limited to a single melanoma cell type.
As for the primary screen, 17-AAG and aphidicolin, had the largest impact on EGFP stimulation, inducing 3-fold and 5-fold increases respectively. Four additional compounds: damnacanthal, flunarizine, OBAA, and dantrolene stimulated EGFP more than 2-fold. We then tested the ability of the hit compounds to induce antigen increases in a more diverse set of tumors including melanomas and gliomas. […]
(§1) Cells were fixed with 1% formaldehyde, permeabilized with 0.1% saponin, stained with monoclonal antibodies to melanocyte antigens. […] The level of EGFP was determined by flow cytometry of unfixed cells that were washed and resuspended in 1×PBS.

The test system of experiment [2] is MU89 melanoma cells. Nature of the experiment: Tumor cell/T cell co-culture IL-2 ELISA (Melan-A/MART-1 specific TCR Jurkat line J-TCR-M1 as responder). The text has this:
The assay relies on the use of an antigen-specific responder T cell line. […] The chosen TCR reacts specifically to a Melan-A/MART-1 decapeptide (26[…]35) presented by HLA-A2, with appropriate triggering of T cell activation. We then used a lentiviral vector system for transduction of this specific TCR into the J.RT3-T3.5 T cell line, a Jurkat cell derivative which fails to express endogenous surface TCR through a mutation in its beta chain.
We evaluated several candidate melanoma cell lines for the ability to stimulate the J-TCR-M1 cell line. Levels of Melan-A/MART-1 (determined by intracellular staining and flow cytometry) and corresponding levels of induced IL-2 (determined by coculture with J-TCR-M1 and IL-2 ELISA) were tested for different melanoma cell lines.
The 480 compounds were tested in six parallel 96 well plates. The first two columns (16 wells) of each plate were used for standards (8 wells), untreated controls (4 wells), and positive controls (4 wells). The other ten columns (80 wells) were used for testing compounds in separate wells. A100 μl aliquot containing 5×10^4 MU89 cells was added to wells that contained 0.1 μl of each test drug diluted in 50 μl of RPMI media. The plates were incubated with drug for 72 hours at 37° C. in a humidified incubator with 5% CO2. After 72 hours, each well received 2.5×10^4J-TCR-M1 cells in 50 μl medium, and then incubated a further 24 hours. At the conclusion of the 24 hour co-culture period, each plate was centrifuged to pellet the cells and 100 μl supernatant fluid was collected from each well and plated in a parallel 96 well flat bottom well for IL-2 ELISA assay.
Melanoma cells were treated with hits from the primary screen for three days prior to counting and plating for the coculture assay (cells were washed and resuspended in fresh medium that no longer contained the treatment agents during the co-culture). A100 μl volume of 5×10^5 cells/ml tumor cells were mixed with 50 μl of […] T cells in a 96-well V-bottom plate and incubated overnight (16-24 hours). Plates were centrifuged to pellet the cells and 100 μl of supernatant fluid was removed from each well for cytokine assay. To assess antigen-specific T cell responses, a final concentration of 3.33 μg/ml Melan-A/MART-1 peptide (26[…]35 (A27L from wild type)) was added to the co-culture.
The protocol for evaluation of the cytokine IL-2 was performed using a the BD OptEAI kit, human IL-2 ELISA set from BD Biosciences (San Diego, Calif.) following the manufacturer's recommendations. The absorbance 450 nm was read in a BioRad 3550 plate reader. A standard curve using known concentrations of IL-2 (from 500 to 8 pg/ml) was included in each ELISA plate. IL-2 levels for experimental samples (pg/ml) were calculated from the standard curve.
100 μl of 5×10^5 tumor cells/ml were mixed with 50 μl of T cells (at 5×10^5 cells/ml) in a 96-well V-bottom plate and incubated overnight (16-24 hours). Plates were centrifuged to pellet the cells and 120 μl of supernatant fluid was removed from each well for cytokine assay. To assess antigen-specific T cell responses, 3.33 μg/ml Melan-A/MART-1 peptide was added to the co-culture.
The protocols for evaluation of either IL-2 or IFN-gamma were similar, following the manufacturer's recommendations. A standard curve using known concentrations of each cytokine was included in each ELISA experiment. ELISA plates were coated with capture antibody and then washed with 1×PBS 0.5% Tween-20. Wells were blocked with 1×PBS 1% FBS for 1 hour and rewashed.
In general terms: ELISA stands for enzyme-linked immunosorbent assay.

In experiment [3] the test system is Melan-A/MART-1 promoter EGFP reporter cell line. The experiment can be described thus: Melan-A/MART-1 promoter-driven EGFP reporter cell line, secondary screen of hits (FIG. 6). Conditions: over a dose range (FIG. 6).
Excerpt: FIG. 6 is a series of graphs showing EGFP detection of in cells treated with the indicated hits showing ability to upregulate a cell line containing a Melan-A/MART-1 promoter-driven EGFP reporter. Note that the x-axes (drug concentrations) and y-axes (EGFP fluorescent measurement) cover different ranges to best indicate the activities of individual compounds. Data from a single determination, representative of at least three confirmatory experiments, is shown.
The EGFP reporter driven by the Melan-A/MART-1 promoter represents one such orthogonal assay because it evaluates directly the effect of the compounds on Melan-A/MART-1 promoter activity independent of Melan-A/MART-1 protein expression. Compounds passing the other secondary screens, but failing this one, may affect antigen presentation by other mechanisms such as increasing the efficiency of antigen processing, enhancing MHC Class I levels, or by stabilizing the antigen/MHC complex.
As for the primary screen, 17-AAG and aphidicolin, had the largest impact on EGFP stimulation, inducing 3-fold and 5-fold increases respectively. […]
as §1

For experiment [4], the system named is HeLa cervical carcinoma cells. Nature of the experiment: Surface antibody staining and flow cytometry (MHC Class I/II). How it is done: (§2) Intracellular staining and flow cytometric analyses of cytoplasmic Melan-A/MART-1, and gp100 expression were performed as described previously. Cells were fixed with 1% formaldehyde, permeabilized with 0.1% saponin, stained with monoclonal antibodies to melanocyte antigens. Antibodies were obtained with specificity for: Melan-A/MART-1 from Vector Labs (Burlingame, Calif.); gp100/HMB45 from DakoCytomation (Carpinteria, Calif.) and then visualized with goat anti-mouse FITC-conjugated secondary antibody from Invitrogen (Frederick, Md.). The level of EGFP was determined by flow cytometry of unfixed cells washed and resuspended in 1×PBS. Surface staining of MHC Class I was carried out using the antibody W6/32 on cells harvested with Cell Stripper from MediaTech Inc. (Manassas, Va.) and carried out on ice.
(§3) Cell were seeded at 1×10^6 cells in a T25 flask with 10 ml of media for the 4 day IFN-beta pre-treatments. Cells were then harvested and plated in 24 well plate at 1×10^5 cells per well in 1 ml of media for 3 day treatments.
(§4) For surface staining of HLA Class I and II antigens, cells were harvested using CellStripper™ from Mediatech (Manassas, Va.). All staining steps were performed on ice. Following a first incubation with antibody to Class I (W6/32) or Class II (L243) for 30 minutes. Stained cells were washed twice with cold PBS and then stained with a goat anti-mouse FITC secondary antibody to allow for quantitative analysis by flow cytometry. For evaluation of cytoplasmic antigens, including Melan-A/MART-1 and gp100, cells were first fixed in paraformaldehyde and permeabilized with saponin as previously described. Staining for cytoplasmic antigens was carried out at room temperature (22° C.).
(Flow cytometry measures light scatter and fluorescence of single cells or particles in a stream.)

In experiment [5] the test system is U2-OS osteosarcoma cells. The description is as above. Conditions: U2-OS. On the procedure:
as §2, §3, §4

For experiment [6], the system named is Raji B cell lymphoma cells. The experiment is described as above. How it is done:
as §2, §3, §4

The test system of experiment [7] is MCF-7 breast cancer cells. The description is as above. Conditions: MCF-7; single agent. On the procedure: as §2, §3, §4
Experiment [8] relates to MU89 melanoma cell line. The experiment can be described thus: Antibody staining and flow cytometry (intracellular Melan-A/MART-1, gp100, TRP-2; surface MHC Class I/II). How it is done:
(§5) Cells were fixed with 1% formaldehyde, permeabilized with 0.1% saponin, stained with monoclonal antibodies to melanocyte antigens. Antibodies were obtained with specificity for: MART-1 from Vector Labs (Burlingame, Calif.); gp100 HMB45 from DakoCytomation (Carpinteria, Calif.) and then visualized with goat anti-mouse FITC-conjugated secondary antibody from Invitrogen (Fredrick, Md.). The level of EGFP was determined by flow cytometry of unfixed cells that were washed and resuspended in 1×PBS.
(§6) Cells were plated at a density of 1×10^5 in 1 ml of medium in a 24-well plate and cultured for varying times as indicated in results. […] After incubation, cells were collected by trypsinization and then evaluated by flow cytometry.
as §2, §3, §4

The subject of experiment [9] is tumor cell lines. Nature of the experiment: MHC Class I and Class II surface staining, statements over a panel of tumor cell lines. Conditions: HeLa, MCF-7, U2-OS, MU-89, U118, Jurkat, Raji (Table 19). On the procedure: as §4
Experiment [10] concerns U-118 MG glioma cell line. Nature of the experiment: Antibody staining and flow cytometry (intracellular gp100; surface MHC Class I/II). On the procedure:
as §5, §6, §2, §3, §4

Experiment [11] concerns Jurkat T cell lymphoma cells. Nature of the experiment: Surface antibody staining and flow cytometry (MHC Class I/II). How it is done: as §2, §4
The subject of experiment [12] is EBV-19 B cell lymphoma cells. The description is as above. Conditions: three days, IFN-β 5000 Units/ml, IFN-γ 100 ng/ml. How it is done:
as §2, §4

The mark [13] stands for this setting: three days, IFN-β 5000 Units/ml, IFN-γ 100 ng/ml, PU-H71 0.3 mg/ml.
The mark [14] stands for this setting: MU89, three days, IFN-β 5000 Units/ml, IFN-γ 100 ng/ml, PU-H71 0.3 mg/ml.

These results are taken from patent US20140335050A1, “METHODS, COMPOSITIONS, AND KITS FOR THE TREATMENT OF CANCER” (The General Hospital Corporation, priority 2011, published 2014).

Regarding `C[C@@]1(CO)[C@H](O)CC[C@@]2(C)[C@H]1CC[C@H]1C[C@@H]3C[C@@]12CC[C@]3(O)CO` [Aphidicolin], in experiment [1], the “Protein increase (Melan-A/MART-1, gp100 intracellular staining)” value is given as “inducing high levels of protein increases at low concentrations”. Besides, the “Fold increase (IL-2 relative to untreated controls), hits from pilot screen” value in [2] (about 10 μM, 72 hours treatment, then 24 hours co-culture) is 2.0 fold. Further, the “IL-2 stimulation in repeat of the tumor T cell co-culture IL-2 ELISA” value in experiment [2] (hits re-tested over a wider dose range (FIG. 5)) was about 5 fold. Besides, in [3], the “EGFP stimulation (Melan-A/MART-1 promoter reporter)” value is on record as 5 fold.

B1: IFN-γ: IFN-γ-1b stock solution 100 μg/ml in PBS; SEQ ID NO: 5 (protein)
chain: MQDPYVKEAENLKKYFNAGHSDVADNGTLFLGILKNWKEESDRKIMQSQIVSFYFKLFKNFKDDQSIQKSVETIKEDMNVKFFNSNKKKRDDFEKLTNYSVTDLNVQRKAIHELIQVMAELPPAAETGKRKRSQMLFRGR
modifications: IFN-gamma-1b
With B1, the “L243 (MHC Class II surface staining)” value in experiment [4] (HELA, single agent) turned out to be 86.0; in [5] (single agent) it was 87.6; in [6] (single agent), 339.3; in [7], 59.1; in experiment [8] (MU-89, single agent), 57.6; in experiment [10] (U118, single agent), 65.3. Further, the “L243 (MHC Class II surface staining)” value in experiment [11] (single agent) is listed as 1.1. Moreover, the “W6/32 (MHC Class I surface staining)” value stood at 464.8 in experiment [4] (HELA, single agent); 293.2 in [5] (single agent); 117 in experiment [6] (single agent); 478.5 in experiment [7]; 138.0 in experiment [8] (MU-89, single agent); 250.5 in experiment [10] (U118, single agent). In addition, the “W6/32 (MHC Class I surface staining)” value in [11] (single agent) is 86.5. Also, the “MHC Class II, geometric mean of surface staining (L2443)” value in experiment [4] (HeLa, three days, IFN-β 5000 Units/ml, IFN-γ 100 ng/ml, PU-H71 0.3 mg/ml) is recorded as 214; in experiment [5] (setting [13]) it was 237; in experiment [6] (setting [13]) it was 142; in [8] (setting [14]), 139; in experiment [10] (Giloma-118, three days, IFN-β 5000 Units/ml, IFN-γ 100 ng/ml, PU-H71 0.3 mg/ml), 40; in experiment [11] (setting [13]), 1. In experiment [12] (PU-H71 0.3 mg/ml), the “MHC Class II, geometric mean of surface staining (L2443)” value is 118. Also, the “MHC Class I, geometric mean of surface staining (W6/32)” value in [4] (HeLa, three days, IFN-β 5000 Units/ml, IFN-γ 100 ng/ml, PU-H71 0.3) is listed as 637; in experiment [5] (setting [13]), 284; in experiment [6] (setting [13]), 117; in [8] (setting [14]) it was 213; in experiment [10] (Giloma-118, three days, IFN-β 5000 Units/ml, IFN-γ 100 ng/ml, PU-H71 0.3), 137; in experiment [11] (three days, IFN-β 5000 Units/ml, IFN-γ 100 ng/ml, PU-H71 0.3 μg/ml) it was 87. Besides, in [12] (PU-H71 0.3), the “MHC Class I, geometric mean of surface staining (W6/32)” value was 277. Also, the “Class I MHC expression over the tumor panel” value in experiment [9] is reported as “induce significant increases”. Moreover, the “Class II MHC expression over the tumor panel” value in [9] is reported as “induced significant Class II”.
